Source: patent US20250163146A1 (published 2025)

Target: Nb.d4C4-1
Experiment: SPR

B1: mDll4(N-EGF3) (ligand)
chain: GSGIFQLRLQEFVNQRGMLANGQSCEPGCRTFFRICLKHFQATFSEGPCTFGNVSTPVLGTNSFVVRDKNSGSGRNPLQLPFNFTWPGTFSLNIQAWHTPGDDLRPETSPGNSLISQIIIQGSLAVGKIWRTDEQNDTLTRLSYSYRVICSDNYYGESCSRLCKKRDDHFGHYECQPDGSLSCLPGWTGKYCDQPICLSGCHEQNGYCSKPDECICRPGWQGRLCNECIPHNGCRHGTCSIPWQCACDEGWGGLFCDQDLNYCTHHSPCKNGSTCSNSGPKGYTCTCLPGYTGEHCEL
modifications: biotinylated (site not stated)
B1 was tested, and the Kd was 1.63 nM.

B2: hDLL4(N-EGF5) (ligand)
chain: SGVFQLQLQEFINERGVLASGRPCEPGCRTFFRVCLKHFQAVVSPGPCTFGTVSTPVLGTNSFAVRDDSSGGGRNPLQLPFNFTWPGTFSLIIEAWHAPGDDLRPEALPPDALISKIAIQGSLAVGQNWLLDEQTSTLTRLRYSYRVICSDNYYGDNCSRLCKKRNDHFGHYVCQPDGNLSCLPGWTGEYCQQPICLSGCHEQNGYCSKPAECLCRPGWQGRLCNECIPHNGCRHGTCSTPWQCTCDEGWGGLFCDQDLNYCTHHSPCKNGATCSNSGQRSYTCTCRPGYTGVDCELELSECDSNPCRNGGSCKDQEDGYHCLCPPGYYGLHCEHSTLSCADSPCFNGGSCRERNQGANYACECPPNFTGSNCEK
modifications: biotinylated in the flow cytometry titration (site not stated); not stated for the plate-coated protein
In the case of B2, the Kd is reported as 1.43 nM.
